Assay: soluble on expression in E. coli; label from the status in PepcDB or PDB records
In the case of “MGSDKIHHHHHHFLDELPDNRTELNSEQKIAKMLVSAYPEGSANELFELYSDNTDDNSARYSYYKLSEEECYNWKDTQEEYQDTPTNLWETHYIAIASANMALEEIEKRGNPESLMPQRGEALVCRAYNHFVLANIFCNAYNTHASQELGIPYMTKVETTVQPQYGRGTLQETYEKIEKDLLDGMALISDDSYSVPKYHFTRKAAYAFAARFYLYYMKPDFSNCDEVIKYADRVLGSDPAAELRDWEALGKLSANDNVQPDAYIASTSKANLLIGSTVSNWGIILSNYMTGKRYLHNKLIASYETSRSSGLWGIPDRMYMQPFTTSGYECSMLRKGGYYAGDYLYYMPVIFSTDETLLCRAEAYTLKKNYPMAAADLTTWEKAYTSNKQTLTPGMINEYYDKMDYYNPTQNPTPKKKLQPDFTIESGIQENFIHCILHMRRIATLHEGLRWPDIKRYGIVIYRRSIANNNIVVTDEMPVNDARRAMQIPKSVVLAGMQPNPRTEN”, the “soluble on expression in E. coli” value is reported as “not soluble”.
In the case of “MGSDKIHHHHHHGCDDNTGGLGLGMFPGNDQNIKGKLSTFDVTTESVKTGDIYAKTNIGYIGKFTDETFGTYQAGFLAQLNCPDGLTFPEPYKEVTDASGNVISATGRMVVDDKDPENKDVTFIKDGNQIIGNIRAVELYLWYDSYFGDSLTACRLSVYELGGNGKETLNLDNAYYTDINPEDFYDSQNILGTKAYTAVDLSVKDSIRNLSTYVPSVHIAFKEDIATRVGGNILTAARKAKNADKEFNSQLFREAFQGIYVKSDYGDGTVLYIDQPQMNVVYKCYATDSITGKKLQKKDGSGKDSTYYSYRVFATTREVIQANQLKNDPERIDALIKEDKNTYLKSPAGIFTEATLPISDIQNELTGDTLNAVKLTFTNYNQTGDKKFGMAIPSTVMLVRKKFQDSFFKDNKLSDGVSSYLTSHTSSTNQYVFSNITKLVNACIAEKEEAKKNAGSSWDETKWLQENPDWNKVVLIPVLVTYDSSNTTTGQANIIRIQHDLKPGYVRLKGGSLGKTNPDYKLKLEVISTDFGLTTKSN”, the “soluble on expression in E. coli” value is reported as “not soluble”.
With “MGSDKIHHHHHHGIDNGTPKSKNEIGVNTIVKKSSRAAVTSNSSFTSFKLHAYIVKSNDIATSGWGNAYMDGIEYKGGQGSWATTSGTFYWPITEMQFFGYTNDVTYTAPASSNAYPTISYTLPDTPADQKDIIVAYSKDVTKPSDNTLNLTFQHILTRINFAVKLVDSSYTYTVESITITGAKGGTATYTFGGTEGKGGNWNITGSAPASGYSYTFDNTVTAKDGIYDYTQNDNSLMLYPQSLTDAKIIVKYKTEKDNATFFNDSKEVSLTGEWTNGQSIRYILTLPVGAEEMSVNTTYDENWDATDNEQTPKNPAS” the “soluble on expression in E. coli” value was “not soluble”.
For “MGSDKIHHHHHHGKEEEGPIPTDRQVPIGVMEASLSTRVSTRGVINTDIYKLGIFRTNANGYPPQYDAPYSYDGAAGWTATTEILVDHRSASLYAYYPYQSVSFADNTTKAILVAQIYDAAKDMCYGSATSADGSGMINNDHKGVRFIDMKHAYARLKLTFVRGTNVMSGRKCKIENIVLKNNSTNFYLQRQVDITTGTITEGTPAAEGYVHNPNVEIASGNQVYEYLLPPQSLTDNKLTISVTVDGEVRTVTVTAFGGTLNAGGYYHVTLTINDVQIVPSAGVTDNGYTSGDDPKNPIQNNTPSVV”, the “soluble on expression in E. coli” value was “not soluble”.
With “MGSDKIHHHHHHGNDDFPAEEPKVPLEITSAFVTGDVQTRAVTPELLTSGSIGVFLEGRSGTGYDKKDNIQYDYNVGWKPKTETIYLGGEDADVCAYKKTTKLDLSAKEAVPLVSQIYDAEIDLVYATNQTVNGTSAGKSVEFTMGHAYSQIEFVFSREDYPNTCKVTEITVENANIIKTATLNLATGGYTPVTVEKVSYWTNVAKHEDGIAVPESGTVKSNVLMIPCTLANAGGTGVTLELKVDGKLMTVPIAHDKLGALTAGVIHQISLKLKGTALEISVKDTPWDNQPVDGEYNPEP” the “soluble on expression in E. coli” value was “not soluble”.
For “MGSDKIHHHHHHGNLEEMNIDPDNATQTHPKLLLTQICMNAFKRGTDGMYATKKVIQADGESADQYYKWTRGSFGYYDNLRNVQKMGEEAERVNAPVYTALTKFFRAYYFYELTLRFGDIPYSQALKGEKEEIYTPEYDAQEDVFAGILQELREADEILANDASVIDGDIIYNGNSTQWRKLINSFRLKVLMTLSNHTTVGNINIASEFKNIATNSPLMNSLADNGQLVYLDQQGNRYPQFNAQWSGYYMDDTFIQRMRERRDPRLFIFSAQTNKGKTEGKPIDDFSSYEGGDPAAPYSDAIIKVSEGTISPINDRFRTDPIVEPTMLMGYAELQQILAEAVVRGWISGNAQTYYEKGIRASFSFYETHAKDYAGYLNENAVAQYLKEPLVDFTQASGTEEQIERIIMQKYLVTFYQGNWDSFYEQLRTGYPDFRRPAGTEIPKRWMYPQGEYDNNGTNVETAITRQFGAGNDKINQATWWQKKS”, the “soluble on expression in E. coli” value was “not soluble”.
For “MGSDKIHHHHHHGPASGRVEMKGESDSLSVRHGQENALSVSDEYPEGYVPVPGIRYQANYLTGNPERLDVKAALRNVRPLKLSQLGSQLDFMVFKDVKGGIFRLIPIEEGCLGVGIGGIWLLDGNLKMIRMLFRNDVDITEENGFTNFQTKRYINPDYYEKSSRTLIGVLYDQRDKKNPKSFVRLSLKDLLSASRPLTPDDIHKRAGISGNYLLGMADGYATWTRFTNDVYTFNLRGDTLCHFTIGEKVNYPPRGNGSYRSGEQATVYHYKGCPMIIMPYGNTVYRMKDASTLEPVYELDFGTLHRATGEEVVGGADVDNAYFLSDWVETDSYVFMHVEKGYDCPYARDKKQVTLYSLIYDKRSKAFFSLPQAEKTVHPCPEPDLPDGIPFWPRKGFSEEQLATFTTGWKLSKSSPEVFKRIPALQGTEKETTSLIITLK”, the “soluble on expression in E. coli” value was “not soluble”.
With “MGSDKIHHHHHHGTISHSVEPGDNLYNLAARYMGNPHAWPDIQKLNHISNPHRLKPGTSLLIPKVSSTVTASFVHGEAWLVDDAGNTIKRIAHGDQLNEGDIVRTGQHSYLSLEFADHSVARILSNTHVRLDRIKESGLVPQGQRVIYLEQGNMDVSVTPAPKCNSQHFKVITPQAVAAVRGTRFSVGVGSVSATSVTQGKVEMQPPQPGKSRSGKMLQAGQGIAASGNGLGEVQPLLAAPDLSQLPSMLPEPELLQFDWPAVNGGSEYQYRIAQDEGMEQVLWNAASYSASATLPSLQDGEYLLAVRALDSYGIPGYEAQHRFIIHSHPSSPWLLSPQQGQPIDGNGILRCTPVEGAQGYHLQIATDDEFRELVVDSGPLDRCQYQLASLAEGDYYWRVASVNAEEEGRLGPYSQPASLTVSQDAHTLPIIAGEAYWTSTLQDARYIAQISRSPRFDTLVAEQELDSPRINIQSLPAGRYYVRLATRLENDTGPFSDARIIEVEHEDNGMDRTWFDKPRS” the “soluble on expression in E. coli” value was “not soluble”.
With “MGSDKIHHHHHHIRSATACSSTDNVVSMKLTEHIGRLTVMGLMLPKHRPFFKERMGMNVQKEGVGEPTMAFTPTQRLHLGAEAEVWKGEWFGKAAVRKQRRPRSWRHPNLDHRLGVRRMISEARLLIRTRKAGLSVPSVWDLDYEGGQLIIEHLEGRPLIDVLNDPATEKEVAKTTLHRVGHSVRRLHREATTHGDLSSNNILIEGEHVHLIDFGLASIEYDVERFGIDLHVLDEILGASHPQWEGAIDWVIEGYLSAEEELGPAPALQGGSVPSAKEVHTRLEDIRTRVRYH” the “soluble on expression in E. coli” value was “not soluble”.
With “MGSDKIHHHHHHISYPLPPEGSRLVGSAFTIAVPDNNTQPLESFAAQYGQGLSNMLEANPGVDVYLPRSGSTLTIPQQLILPDTVREGIVINVAEMRLYYYPPLGNSVEVLPIGIGQAGRETPRNWVTAVERKQEGPTWVPTANTRREYAKEGKTLPAMVPPGPDNPMGLYAIYIGRLYAIHGTNANFGIGLRVSQGCIRLRNDDIKFLFDNVPVGTRVQLIDQPVKYSVEPDGSHWLEVHEPLSRNRAEFESDRKVPLPMTSALRDFTQGPGVSPAQVEQTLQRRSGMPVNISATAAQGSL” the “soluble on expression in E. coli” value was “not soluble”.
With “MGSDKIHHHHHHKAFPLRTVFSEGIYYVCAEDLAPAGVGYIHSNGYHYIVYDNHVLFIKEHETIFDFVEKLSPPLFVDGLLFVPIDALKKVMEGYQMYTKGEKVLIYDSLPIVLSAAKEKNGVTITYTGTIVPDMVSVEKSMGRVRINLSPVVVSLPNVSEDIKVELEKNGLSFIVDVGNFYPDVEYSIGDGKLLFRFLLVEGFFGRLEVADGVVFERKIEEFDEGEKTVVNYLIMDPEKVTIKPVVSENGFGTIERLDEMVKRVGGIAGINGNYFDPVTKFPIGLVVIDGKPYSAMFSGRPVFAITEDNEVFIGRVIVDVTLMVKDVLFLVKGINTLGEGEVLVYTKEFSKEIPKKDDKIYFVVKDSKVSQIGYKSHAEDSEYVVSISKKYEEYLSDLKEGDEVYISLQPNIPLRIKQAVEGGPLLIQNGAPIPDAWEEKARYGGGIAYAKAPRTVIATKDGKLWFLVFEGYNHITRGLTYDELVDFLVSRGFEDAMCVDGGSSSVMAVAGSLFGRTENSTAAIPVGIVVWEKKKTEVGK” the “soluble on expression in E. coli” value was “not soluble”.
In the case of “MGSDKIHHHHHHKDDADAPLRFYDSKYEVPMGGRRYLGIESGNGDYSLEIGNPRIASAGIESGWSGVPAGRMIYISGILTGSTYLKVTDNATQETLTLPIKVVDYYEDLNLIHGSSSLRPNGDENLLPGVDDIFLVSNAARDAYFFKQGQRTAFSSGLELITKGTYALKQEDENKATLTLTFSLDASPATEHHFTVWGNTYLLHRLDKNLHLNWGTPPIGETRTSPAPPPAYTLEEITEGAEPGTGRQVGFILNYKEIPTGILP”, the “soluble on expression in E. coli” value is reported as “not soluble”.
In the case of “MGSDKIHHHHHHKHIVIMMTFKQDILPIIEALCSEGYHVTVIGKKIYQKDINNINHAYFIPAGNKYIMRHMKVLSKAKIIILDTYYLMMGGYQKKKGQTVIQTWHAAGALKNFGLTDHQVDLKNKAMVRQYKKVYDATDYYLVGGEKMAQCFIQSFDASPSQMLKFGLPRLTQYFRSNLKLEQQRLKKKYHITNKLAVYVPTYREGQVAQRTIDKENFERHLPNYTLLSHLHPSTVDCQTSHSIDVTSLLIMADIIISDYSSLPIEASALNKPTLIYNYDEQQYEKVRGLNEFYYAIPERYKMSNEESIIQAIQDNDEQFQSLFNDWHQYNSKDSLNQLVHFINKLVK”, the “soluble on expression in E. coli” value is reported as “not soluble”.
With “MGSDKIHHHHHHKSTDYELKYSYAKKYFNAKQYSKSATLLDELVTIFKGTAYAEESLYLLAQSYYGQKDYQTASQYFETYYTTYPKGEFTELSRFYSGYGLYLDSPDPRLDQSQTYKAIEQLQLYLEYYPQSERAEEAQNIMFELQEKLAYKELMATRLYFNLGTYMGNNFQSCVITAQNALKNYPYSKYREEFMFLIIRAKYELALVSVEEKLQGRYRDVVDEYYNYMNEYPEGNYVKQVTKFYDYASKRITDAY” the “soluble on expression in E. coli” value was “not soluble”.
For “MGSDKIHHHHHHKSVHPYWSQVEQGVKAAGKALGVDTKFFVPQKEDINAQLQMLESFIAEGVNGIAIAPSDPTAVIPTIKKALEMGIPVVTLDTDSPDSGRYVYIGTDNYQAGYTAGLIMKELLGGKGKVVIGTGSLTAMNSLQRIQGFKDAIKDSEIEIVDILNDEEDGARAVSLAEAALNAHPDLDAFFGVYAYNGPAQALVVKNAGKVGKVKIVCFDTTPDILQYVKEGVIQATMGQRPYMMGYLSVTVLYLMNKIGVQNTLMMLPKVKVDGKVDYVIDTGVDVVTPENLDEYLKKMEELGIPIKF”, the “soluble on expression in E. coli” value was “not soluble”.
In the case of “MGSDKIHHHHHHKVEDLVQIATALEVDTIVLNDELSPSQLTNLEKETNLHFIDRTGLILEIFANRAHSREAKLQVELAKLQYQLPRLRTSSTQRLDQQTAGNTGGGFTNRGSGETKLELNRRTIRNKINHINKELKEMTTSSDIQRKQRDKKDIPSVALVGYTNTGKSTTMNGLVRMYGRNEDKQVFEKDMLFATLDTSVRKLTFPDQKELVLSDTVGFVSHLPHQLVKAFRSTLAEAAKADLLVQIVDISDPHYREMMQTTEDTLNEIGVTDIPMIYAFNKADLAGVSYPTLDGNELTYSAKQLQSLEMVTALIKKQVFKNYVEAKFLIPFNEGQVVDFLNGNADVKKTDYTEEGTEITAELKEKDYQRLARYVIQ”, the “soluble on expression in E. coli” value is reported as “not soluble”.
